Experimental data taken from patent CN117990807A (BEIJING DONGFANG BIOTECH CO LTD; BEIJING JINGYI TAIXIANG …, dated 2024).
Changes are numbered by the printed parent chain.

T1: 鼠TSLP-His (mouse, UniProt Q9JIE6 20-140)
T1 construct: Bought protein; also called TSLP(Mouse); not shown: His tag
T1 sequence (looked up): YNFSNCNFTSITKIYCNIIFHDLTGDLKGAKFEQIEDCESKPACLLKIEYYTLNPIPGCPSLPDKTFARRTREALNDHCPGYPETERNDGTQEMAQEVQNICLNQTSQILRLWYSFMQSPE

B1: 人源化抗TSLP单克隆抗体HA-Ⅱ (antibody, human IgG1, kappa, L234A L235A, V domains shown)
VH: QVQLVQSGAEVKKPGASVKVSCKASGYTFTSYWMHWVRQAPGQGLEWIGLIDPSDSDTTYNQKFKGRATLTVDTSTSTAYMELSSLRSEDTAVYYCSRSLDGYFDHWGQGTLVTVSS
VL: DIVMTQSPSSLSASVGDRVTITCRASENIYSYLAWYQQKPGKAPKLLVYNARTLAEGVPSRFSGSGSGTDFTLTISSLQPEDFATYYCQHHYGTPWTFGGGTKVEIKR
notes: Humanized from MA-Ⅰ
B2: 人源化抗TSLP单克隆抗体HA-Ⅰ (antibody, human IgG1, kappa, L234A L235A, V domains shown)
VH: B1 VH
VL: B1 VL with A43S
notes: Humanized from MA-Ⅰ; also called HA-1
B3: 人源化抗TSLP单克隆抗体HA-Ⅲ (antibody, human IgG1, kappa, L234A L235A)
heavy: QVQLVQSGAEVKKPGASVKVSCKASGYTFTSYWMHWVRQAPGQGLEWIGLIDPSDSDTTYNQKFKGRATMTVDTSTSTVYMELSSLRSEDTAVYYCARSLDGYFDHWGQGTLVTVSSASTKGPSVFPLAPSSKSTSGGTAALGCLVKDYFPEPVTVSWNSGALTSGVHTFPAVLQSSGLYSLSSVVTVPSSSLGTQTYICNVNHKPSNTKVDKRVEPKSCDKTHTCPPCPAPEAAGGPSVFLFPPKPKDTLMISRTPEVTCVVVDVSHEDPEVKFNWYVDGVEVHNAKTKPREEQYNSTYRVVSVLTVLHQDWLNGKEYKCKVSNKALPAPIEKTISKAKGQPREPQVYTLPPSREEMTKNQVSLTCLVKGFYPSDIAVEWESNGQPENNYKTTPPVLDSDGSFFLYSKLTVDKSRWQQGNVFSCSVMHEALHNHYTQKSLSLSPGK
light: DIQMTQSPSSLSASVGDRVTITCRASENIYSYLAWYQQKPGKAPKLLVYNARTLAEGVPSRFSGSGSGTDFTLTISSLQPEDFATYYCQHHYGTPWTFGGGTKVEIKRTVAAPSVFIFPPSDEQLKSGTASVVCLLNNFYPREAKVQWKVDNALQSGNSQESVTEQDSKDSTYSLSSTLTLSKADYEKHKVYACEVTHQGLSSPVTKSFNRGEC
notes: Humanized from MA-Ⅰ
B4: 人源化抗TSLP单克隆抗体HA-Ⅳ (antibody, human IgG1, kappa, L234A L235A)
heavy: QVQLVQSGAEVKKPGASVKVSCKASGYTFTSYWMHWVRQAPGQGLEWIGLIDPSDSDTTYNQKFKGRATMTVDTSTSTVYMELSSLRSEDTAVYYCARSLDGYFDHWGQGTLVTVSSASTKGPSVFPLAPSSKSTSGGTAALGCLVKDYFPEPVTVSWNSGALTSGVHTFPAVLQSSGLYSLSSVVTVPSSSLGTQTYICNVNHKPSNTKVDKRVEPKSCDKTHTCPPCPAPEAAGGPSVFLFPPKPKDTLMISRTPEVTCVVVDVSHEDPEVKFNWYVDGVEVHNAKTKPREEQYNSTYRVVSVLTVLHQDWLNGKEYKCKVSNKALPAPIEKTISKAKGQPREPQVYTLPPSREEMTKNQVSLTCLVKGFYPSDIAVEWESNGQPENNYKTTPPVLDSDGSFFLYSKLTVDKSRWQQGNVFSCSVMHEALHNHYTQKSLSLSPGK
light: B3 light with Q3V
notes: Humanized from MA-Ⅰ
B5: MA-Ⅰ鼠源抗TSLP单克隆抗体 (murine IgG1/Ck) (antibody)
heavy: QVQLEQSGAELVKPGASVKMSCKASGYTFTSYWMHWVKQRPGQGLEWIGLIDPSDSDTTYNQKFKGKATLTVDTSSSTAYMQLGSLTSEDSAVYYCSRSLDGYFDHWGQGTLVTVSAAKTTPPSVYPLAPGSAAQTNSMVTLGCLVKGYFPEPVTVTWNSGSLSSGVHTFPAVLQSDLYTLSSSVTVPSSTWPSETVTCNVAHPASSTKVDKKIVPRDCGCKPCICTVPEVSSVFIFPPKPKDVLTITLTPKVTCVVVDISKDDPEVQFSWFVDDVEVHTAQTQPREEQFNSTFRSVSELPIMHQDWLNGKEFKCRVNSAAFPAPIEKTISKTKGRPKAPQVYTIPPPKEQMAKDKVSLTCMITDFFPEDITVEWQWNGQPAENYKNTQPIMDTDGSYFVYSKLNVQKSNWEAGNTFTCSVLHEGLHNHHTEKSLSHSPG
light: DIVMTQSPASLSASVGETVTITCRASENIYSYLAWYQQKQGKSPQLLVYNARTLAEGVPSRFSGSGSGTQFSLKINSLQPEDFGSFYCQHHYGTPWTFGGGTKLEIKADAAPTVSIFPPSSEQLTSGGASVVCFLNNFYPKDINVKWKIDGSERQNGVLNSWTDQDSKDSTYSMSSTLTLTKDEYERHNSYTCEATHKTSTSPIVKSFNRNEC
notes: also called MA-I
B6: MA-Ⅱ鼠源抗TSLP单克隆抗体 (murine IgG1/Ck) (antibody, V domains shown)
VH: QVKLQQSGAELVKPGASVKMSCKASGYTFTTYWMHWVKQRPGQGLEWIGVIDPSDSYITYNQKFKGKATLTVDTSSSTAYMQLSSLTSEDSAVYYCTRSLDGYFDYWGQGTLVTVSA
VL: DIVLTQSPASLSASVGETVTITCRASENIYSYLAWYQQKQGKSPQLLVYNAKTLAEGVPSRFSGSGSGTQFSLKINSLQPEDFGSYYCQHHYGTPWTFGGGTKLEIKA
B7: MA-Ⅲ鼠源抗TSLP单克隆抗体 (murine IgG1/Ck) (antibody, V domains shown)
VH: B6 VH with K3Q, S7P, T31S, Y57D, I58T, A79V, Y106H
VL: B6 VL with L4M, E27G, Y30H, S31N, E56D, F71Y, H91F, Y92W, G93S
B8: MA-Ⅳ鼠源抗TSLP单克隆抗体 (murine IgG1/Ck) (antibody, V domains shown)
VH: B6 VH with Q5E, T31S, Y57D, I58T, Y106H
VL: DIVITQTPASLSASVGETVTITCRASGNIHNYLAWYQQKQGKSPQLLVYNTKTLADGVPSRFSGSGSGTQYSLKINSLQPEDFGSYYCQHFWSTPYTFGGGTKLEIKA
B9: 嵌合抗体CA-Ⅰ (antibody, human IgG1, kappa, L234A L235A)
heavy: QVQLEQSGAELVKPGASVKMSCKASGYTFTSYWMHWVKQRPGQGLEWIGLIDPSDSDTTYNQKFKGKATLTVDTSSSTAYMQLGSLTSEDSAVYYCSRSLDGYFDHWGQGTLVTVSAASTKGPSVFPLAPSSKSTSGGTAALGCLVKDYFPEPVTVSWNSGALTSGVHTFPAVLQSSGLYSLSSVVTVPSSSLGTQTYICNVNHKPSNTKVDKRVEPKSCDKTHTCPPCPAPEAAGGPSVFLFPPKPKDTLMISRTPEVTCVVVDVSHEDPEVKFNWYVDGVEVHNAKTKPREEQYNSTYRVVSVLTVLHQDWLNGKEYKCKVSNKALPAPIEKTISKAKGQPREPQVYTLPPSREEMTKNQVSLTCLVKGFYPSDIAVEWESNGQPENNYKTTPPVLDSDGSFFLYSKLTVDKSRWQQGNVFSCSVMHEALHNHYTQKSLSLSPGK
light: DIVMTQSPASLSASVGETVTITCRASENIYSYLAWYQQKQGKSPQLLVYNARTLAEGVPSRFSGSGSGTQFSLKINSLQPEDFGSFYCQHHYGTPWTFGGGTKLEIKRTVAAPSVFIFPPSDEQLKSGTASVVCLLNNFYPREAKVQWKVDNALQSGNSQESVTEQDSKDSTYSLSSTLTLSKADYEKHKVYACEVTHQGLSSPVTKSFNRGEC
notes: also called chimeric antibody CA-I

biological target: T1, 鼠TSLP-His; test: ELISA, mouse TSLP-His coated

Row | binding result | Binder
1 | no binding (tested: 16μg/ml) | B1
2 | no binding (tested: 16μg/ml) | B2
3 | no binding (tested: 16μg/ml) | B3
4 | no binding (tested: 16μg/ml) | B4

biological target: T2, TSLP (人TSLP, thymic stromal lymphopoietin) (human, UniProt Q969D9 29-159, limits assumed); test: ELISA, TSLP coated, goat anti-mouse IgG-HRP
T2 construct: also called TSLP抗原; 抗原TSLP

Row | EC50 | Binder
5 | 1.1 ng/mL | B5
6 | 2.04 ng/mL | B6
7 | 1.98 ng/mL | B7
8 | 5.57 ng/mL | B8

biological target: T3, 人TSLP-His (human, UniProt Q969D9 29-159, limits assumed); test: ELISA, TSLP-His coated, goat anti-human IgG-HRP
T3 construct: also called TSLP(Human); not shown: His tag

Row | EC50 | Binder
9 | 0.0131 µg/mL | B9

biological target: T4, 猴TSLP-His (食蟹猴TSLP) (cynomolgus monkey, UniProt A0A7N9CAT7 29-159); test: ELISA, cynomolgus TSLP-His coated, goat anti-human IgG-HRP
T4 construct: Bought protein; also called TSLP(Cynomolgus); not shown: His tag
T4 sequence (A0A7N9CAT7 entry or part of it): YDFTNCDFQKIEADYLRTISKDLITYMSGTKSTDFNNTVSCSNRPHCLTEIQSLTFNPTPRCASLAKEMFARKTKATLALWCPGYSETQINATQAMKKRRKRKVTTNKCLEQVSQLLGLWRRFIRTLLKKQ

Row | EC50 | Binder
10 | 0.0508 µg/mL | B1
11 | 0.0273 µg/mL | B2
12 | 0.0892 µg/mL | B3
13 | 0.0508 µg/mL | B4

biological target: T3, 人TSLP-His; test: competition ELISA: CRLF2-Fc coated, TSLP-His 10μg/ml plus antibody dilutions, anti-His-HRP

Row | IC50 | Binder
14 | 1.52 µg/mL | B5
15 | 15.6 µg/mL | B6
16 | 2.4 µg/mL | B7
17 | 11.8 µg/mL | B8
